Results from publication PMC10873205 (2024).

Biological target: UBE2A (UniProt P49459 1-152)
Assay: ITC

Kd: 1470 nM
B1: UBR4_(xtal) Ser4930Arg (domain or fragment)
chain: AIQHPGTQVLIGTDSIPNLHKLEQVSSDEGIGTLAENLLEALREHPDVNKKIDAARRETRAEKKRMAMAMRQKALGTLGMTTNEKGQVVTKTALLKQMEELIEEPGLTCCICREGYKFQPTKVLGIYTFTKRVALEEMENKPRKQQGYSTVSHFNIVHYDCHLAAVRLARGREEWESAALQNANTKCNGLLPVWGPHVPERAFATCLARHNTYLQECTGQREPTYQLNIHDIKLLFLRFAMEQSFSADTGGGGRESNIHLIPYIIHTVLYVLNTTRATSREEKNLQGFLEQPKEKWVESAFEVDGPYYFTVLALHILPPEQWRATRVEILRRLLVTSQARAVAPGGATRLTDKAVKDYSAYRSSLLFWALVDLIYNMFKKVPTSNTEGGWSCSLAEYIRHNDMPIYEAADKALKTFQEEFMPVETFSEFLDVAGLLSEITDPESFLKDLLNSVP
